Laboratory results: the RNAGym collection of RNA variant scans (doi:10.7554/elife.80360)

B1: Hairpin Ribozyme (parent)
chain: GUCCUCUUUCACGUGCGCGUGAAAGAGAGAAGUGAACCAGAGAAACACACGUUGUGGUAUAUUACCUGGUA
B2: HDV Ribozyme (parent)
chain: GGCCGGCAUGGUCCCAGCCUCCUCGCUGGCGCCGGCUGGGCAACAUUCCGAGGGGACCGUCCCCUCGGUAAUGGCGAAUGGGACCCA

Variants of: B1
Test: self-cleavage, relative activity (ratio to wild type); higher = more cleavage; co-transcriptional
Work on AUCCUCUUUCACGUGCGCGUGAACGAGAGAAGUGAACCAGAGAAACACACGUUGUGGUAUAUUACCUGGUA [G1A A24C] yielded a self-cleavage of 0.18.
With AUCCUCUUUCACGUGCGCGUGAAAGAGAGAAGUGAACCAGAGAAACACACUUUGUGGUAUAUUACCUGGUA [G1A G51U] the self-cleavage was 0.274.
With AUCCUCUUUCACGUGCGCGUGGAAGAGAGAAGUGAACCAGAGAAACACACGUUGUGGUAUAUUACCUGGUA [G1A A22G] the self-cleavage was 0.223.
AUCCGCUUUCACGUGCGCGUGAAAGAGAGAAGUGAACCAGAGAAACACACGUUGUGGUAUAUUACCUGGUA [G1A U5G] gave a self-cleavage of 0.14.
In the case of AUCCUCUUUCACGUGCGCGUGAAAGAGAGAAGUGAACCAGAGAAACACACGUUGGGGUAUAUUACCUGGUA [G1A U55G], the self-cleavage is reported as 0.0224.
Variant AUCCUCUUUCACGUGCCCGUGAAAGAGAGAAGUGAACCAGAGAAACACACGUUGUGGUAUAUUACCUGGUA [G1A G17C] has a self-cleavage of 0.12.
For AUCCUCUUUCACGUGCGCGUGAAAGAGAGAAGUGAACCAGAGAAACACACGCUGUGGUAUAUUACCUGGUA [G1A U52C], the self-cleavage was 0.181.
Work on AUCCUCUUUCACGUGCGCGUGAAAGAGAGAAGUGAACCAGAGAAACACACGUUGUGGUAUAUUACCUGCUA [G1A G69C] yielded a self-cleavage of 0.137.
Variant AUCCUCUUUCACGUGCGCGUGAAAGAGAGAAGUGAACCAGAGAAACACACGUUGUGGUAUAUUACCUGAUA [G1A G69A] has a self-cleavage of 0.164.
AUCCUCUUUCACGUGCGCGUGAAAGAGGGAAGUGAACCAGAGAAACACACGUUGUGGUAUAUUACCUGGUA [G1A A28G] showed a self-cleavage of 0.196.
AUCCUCUUUCACGUGCGCGUGAAAGAGUGAAGUGAACCAGAGAAACACACGUUGUGGUAUAUUACCUGGUA [G1A A28U] showed a self-cleavage of 0.0496.
For AUCCUCUUUCACGUGCGCGUGAAAGAGAGAAGUGAACCAGAGAAACACAUGUUGUGGUAUAUUACCUGGUA [G1A C50U], the self-cleavage was 0.135.
Work on AUCCUCUUUCACGUGCGCGUGAAAGCGAGAAGUGAACCAGAGAAACACACGUUGUGGUAUAUUACCUGGUA [G1A A26C] yielded a self-cleavage of 0.147.
Variant AUCCUCUUUCACGUGCGCGUGAAAGAGAGAAGUGAACCAGAGAAACACACGUUGUGGUACAUUACCUGGUA [G1A U60C] has a self-cleavage of 0.248.
AUCCUCUUUCACGUGCGCGUGAAAGAGAGUAGUGAACCAGAGAAACACACGUUGUGGUAUAUUACCUGGUA [G1A A30U] gave a self-cleavage of 0.159.
With AUCCUCAUUCACGUGCGCGUGAAAGAGAGAAGUGAACCAGAGAAACACACGUUGUGGUAUAUUACCUGGUA [G1A U7A] the self-cleavage was 0.127.
Variant AUCCUCCUUCACGUGCGCGUGAAAGAGAGAAGUGAACCAGAGAAACACACGUUGUGGUAUAUUACCUGGUA [G1A U7C] has a self-cleavage of 0.31.
In the case of AUCCUCUUUCACGUGCGCGUGAAAGAGAGAAGUGAACCAGAGAUACACACGUUGUGGUAUAUUACCUGGUA [G1A A44U], the self-cleavage is reported as 0.17.
In the case of AUCCUCUUUCACGUACGCGUGAAAGAGAGAAGUGAACCAGAGAAACACACGUUGUGGUAUAUUACCUGGUA [G1A G15A], the self-cleavage is reported as 0.208.
AUCCUCUUUCACGUUCGCGUGAAAGAGAGAAGUGAACCAGAGAAACACACGUUGUGGUAUAUUACCUGGUA [G1A G15U] gave a self-cleavage of 0.0969.
AUCCUCUUUCACAUGCGCGUGAAAGAGAGAAGUGAACCAGAGAAACACACGUUGUGGUAUAUUACCUGGUA [G1A G13A] gave a self-cleavage of 0.161.
AUCCUCUUUCCCGUGCGCGUGAAAGAGAGAAGUGAACCAGAGAAACACACGUUGUGGUAUAUUACCUGGUA [G1A A11C] gave a self-cleavage of 0.139.
Variant AUCCUCUUUCGCGUGCGCGUGAAAGAGAGAAGUGAACCAGAGAAACACACGUUGUGGUAUAUUACCUGGUA [G1A A11G] has a self-cleavage of 0.0942.
AUCCUCUUUCAUGUGCGCGUGAAAGAGAGAAGUGAACCAGAGAAACACACGUUGUGGUAUAUUACCUGGUA [G1A C12U] gave a self-cleavage of 0.266.
AUCCUCUUUGACGUGCGCGUGAAAGAGAGAAGUGAACCAGAGAAACACACGUUGUGGUAUAUUACCUGGUA [G1A C10G] gave a self-cleavage of 0.207.
In the case of AUCCUCUUUCACGUGCGCGUGAAAGAGAGAAGUGAACCAGAGAAACACACGUUGUGGUAUUUUACCUGGUA [G1A A61U], the self-cleavage is reported as 0.0641.
Variant AUCCUCUUUCACGUGCGCGUGAAAGAGAGAAGUGAACCAGAGAAAUACACGUUGUGGUAUAUUACCUGGUA [G1A C46U] has a self-cleavage of 0.225.
Variant AUCCUCUUUCACGUGAGCGUGAAAGAGAGAAGUGAACCAGAGAAACACACGUUGUGGUAUAUUACCUGGUA [G1A C16A] has a self-cleavage of 0.172.
Work on AUCCUCUUUCACGUGCGCGUGAAAGAGAGAAGUGUACCAGAGAAACACACGUUGUGGUAUAUUACCUGGUA [G1A A35U] yielded a self-cleavage of 0.142.
AUCCUCUUUCACGUGCGCGUGAAAGAGAGAAGUGAACCAGAGAAACACACGUUGUGGUAUAUUACUUGGUA [G1A C66U] showed a self-cleavage of 0.127.
AUCCUCUUUCACGUGCGCGUGAAAGAGAGAAGUGAACCAGAGAAACACACGUUGUGGUAUAUUACAUGGUA [G1A C66A] gave a self-cleavage of 0.164.
In the case of AUCCUCUUUCACGUGCGCGUGAAAGAGAGAAGUGAACCAGAGAAUCACACGUUGUGGUAUAUUACCUGGUA [G1A A45U], the self-cleavage is reported as 0.106.
For AUCCUCUUUCACGUGCGCGUCAAAGAGAGAAGUGAACCAGAGAAACACACGUUGUGGUAUAUUACCUGGUA [G1A G21C], the self-cleavage was 0.119.

Variants of: B2
Test: as above
Work on GGCCGGCAUGGUCCCAGCCUCCUCGCUGGCGCCGGCUGGGCAACAUUCCGAGGGGACCGUCCCCUCGGUAAUGGCGAAUGGGACACG [C85A A87G] yielded a self-cleavage of 0.875.
GGCCGGCAUGGUCCCAGCCUCCUCGCUGGCGCCGGCUGGGCAACAUUCCGAGGGGACCGUCCCCUCGGUAAUGGCGAAUGGGAACUA [C84A C86U] gave a self-cleavage of 0.719.
With GGCCGGCAUGGUCCCAGCCUCCUCGCUGGCGCCGGCUGGGCAACAUUCCGAGGGGACCGUCCCCUCGGUAAUGGCGAAUGGGACGGA [C85G C86G] the self-cleavage was 0.905.
For GGCCGGCAUGGUCCCAGCCUCCUCGCUGGCGCCGGCUGGGCAACAUUCCGAGGGGACCGUCCCCUCGGUAAUGGCGAAUGGGAUCCG [C84U A87G], the self-cleavage was 0.437.
With GGCCGGCAUGGUCCCAGCCUCCUCGCUGGCGCCGGCUGGGCAACAUUCCGAGGGGACCGUCCCCUCGGUAAUGGCGAAUGGGACGCU [C85G A87U] the self-cleavage was 0.785.
